Assay results published in patent publication US11618906B2, “Hydroxylation techniques” (HYPHA DISCOVERY LTD., priority 2018, dated 2023).
Positions count from the first letter of the chain named. Names may count otherwise.

B1: aluC09M35: cytochrome P450 aluC09 mutant T291P; amino acid sequence SEQ ID NO: 52 (protein, listed as Amycolatopsis lurida)
chain: MTDVEETTATLPLARKCPFSPPPEYERLRRESPVSRVGLPSGQTAWALTRLEDIREMLSSPHFSSDRQSPSFPLMVARQIRREDKPFRPSLIAMDPPEHSRARRDVVGEFTVKRMKALQPRIQQIVDEHLDALLAGPKPADLVQALSLPVPSLVICELLGVPYSDHEFFQSCSSRMLSREVTAEERMTAFEQLENYLDELVTKKEANATEDDLLGRQILKQRETGEADHGELVGLAFLLLIAGHETTANMISLGTVTLLENPDQLAKIKADPGKTLAAIEELLRVFTIAEPATSRFATADVEIGGTLIRAGEGVVGLSNAGNHDPDGFENPDTFDIERGARHHVAFGFGVHQCLGQNLARLELQIVFDTLFRRVPGLRIAVPVDELPFKHDSTIYGLHALPVTW
B2: aluC09M39: cytochrome P450 aluC09 mutant T291K; amino acid sequence SEQ ID NO: 68 (protein, listed as Amycolatopsis lurida)
chain: B1 chain with P291K

How the values were obtained:
Type in all cases: biochemical
[1] = Metabolism of celecoxib by P450 aluC09 and mutants; conditions: percent of substrate being converted; 0.125 mg/ml, 27° C., 16-20 hours; [CYP] per enzyme as in Table 8
Method in brief: (§1)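 Read-out was substrate conversion by UPLC-MS after acetonitrile extraction. Reactions had contained lyophilised aluC09 mutant enzymes with ferredoxin and ferredoxin reductase partners, substrate at 0.125 mg/ml, and a glucose-6-phosphate dehydrogenase NADPH-regenerating system, shaken 16-20 hours at 27° C.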

[2] = Metabolism of tofacitinib by P450 aluC09 and mutants; conditions: percent of substrate being converted; 0.125 mg/ml, 27° C., 16-20 hours; [CYP] per enzyme as in Table 8
Method in brief: as §1

[3] = O-demethylation of indomethacin catalysed by cytochrome P450 aluC09 and mutants; conditions: % by UV peak area at 275 nm; 0.125 mg/ml substrate, 27° C., 16-20 hours
Method in brief: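 Lyophilised CYP450aluC09 mutants with ferredoxin aluF03 and reductase SCF15A, 0.125 mg/ml substrate, 50 mM potassium phosphate pH 7.4, 5 mM MgCl2, G6P/G6PDH/NADP recycling. Shaken 16-20 h at 27° C. Acetonitrile-quenched, conversion measured by UPLC-MS.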

[4] = Metabolism of BIRB796 by P450 aluC09 and mutants; conditions: percent of substrate being converted; 0.125 mg/ml, 27° C., 16-20 hours; [CYP] per enzyme as in Table 8
Method in brief: as §1

[5] = Metabolism of ritonavir by P450 aluC09 and mutants; conditions: percent of substrate being converted; 0.125 mg/ml, 27° C., 16-20 hours; [CYP] per enzyme as in Table 8
Method in brief: as §1

[6] = Metabolism of tivantinib by P450 aluC09 and mutants; conditions: percent of substrate being converted; 0.125 mg/ml, 27° C., 16-20 hours; [CYP] per enzyme as in Table 8
Method in brief: as §1

[7] = Hydroxylation of flufenamic acid catalysed by cytochrome P450 aluC09 and mutants; conditions: for Flufenamic Acid (Substrate) 1.93 mins / Hydroxy-Flufenamic Acid (1) 1.69 mins / Hydroxy-Flufenamic Acid (2) 1.65 mins: % by UV peak area at 275 nm, 0.125 mg/ml substrate, 27° C., 16-20 hours; for Hydroxylated Ratio 1:2: flufenamic acid, ratio of UV peak areas at 275 nm
Method in brief: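 Lyophilised CYP450aluC09 mutants with ferredoxin aluF03 and reductase SCF15A, in 50 mM potassium phosphate pH 7.4, 5 mM MgCl2, 0.125 mg/ml flufenamic acid, G6P/NADP/G6PDH NADPH regeneration. Shaken 16-20 h at 27° C; acetonitrile-quenched, conversion to two hydroxy products by UPLC-MS.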

[8] = Metabolism of valsartan by P450 aluC09 and mutants; conditions: percent of substrate being converted; 0.125 mg/ml, 27° C., 16-20 hours; [CYP] per enzyme as in Table 8
Method in brief: as §1

[9] = Metabolism of bosentan by P450 aluC09 and mutants; conditions: percent of substrate being converted; 0.125 mg/ml, 27° C., 16-20 hours; [CYP] per enzyme as in Table 8
Protocol: (§2) Lyophilised material of mutants of CYP450aluC09, ferredoxinaluF03 and ferredoxin reductaseSCF15A was made as described in examples 3 and 4 and suspended in water (0.5 mL per vial) and biocatalysis was performed at 27° C. in the following conditions: 50 mM potassium phosphate pH 7.4, 5 mM MgCl2, 0.125 mg/ml substrate compound such as diclofenac (Sigma-Aldrich, UK), Aceclofenac (Tokyo Chemical Industry UK Ltd, UK), Indomethacin (Sigma-Aldrich, UK), Flufenamic acid (Sigma-Aldrich, UK), Napropamide (Sigma-Aldrich, UK), celecoxib (LC Laboratories, USA), valsartan (Tokyo Chemical Industry UK Ltd, UK), ruxolitinib (LC Laboratories, USA), 4-pyrrolidylacetophenone (Sigma-Aldrich, UK), tofacitinib (LC Laboratories, USA), bosentan (CarboSynth Ltd, UK), buparvaquone (MedChemtronica, Sweden), BIRB796 (Stratech Scientific Limited, UK), epothilone B (LC Laboratories, USA), ritonavir (Tokyo Chemical Industry UK Ltd, UK) or tivantinib (MedChemtronica, Sweden), P450AluC09 (concentration as in Table 8), 5 mM G6P, 1 mM NADP, 2 UN/ml G6PDH in a final volume of 100 μL. After 16-20 hours at 200 rpm (5 cm orbital shaker, Kuhner AG, Switzerland), reactions were extracted with an equal volume of acetonitrile, centrifuged to remove precipitated proteins and conversion assessed by UPLC-MS analysis.
(§3) However, of particular note when considering P450 concentration are the results for mutants M12, M20 and M34, as well as the deleterious impact on the range of substrate utility in mutants M39 and M40.

[10] = Metabolism of ruxolitinib by P450 aluC09 and mutants; conditions: percent of substrate being converted; 0.125 mg/ml, 27° C., 16-20 hours; [CYP] per enzyme as in Table 8
Method in brief: as §1

[11] = Metabolism of epothilone B by P450 aluC09 and mutants; conditions: percent of substrate being converted; 0.125 mg/ml, 27° C., 16-20 hours; [CYP] per enzyme as in Table 8
Method in brief: as §1

[12] = Metabolism of 4-pyrrolidylacetophenone by P450 aluC09 and mutants; conditions: percent of substrate being converted; 0.125 mg/ml, 27° C., 16-20 hours; [CYP] per enzyme as in Table 8
Method in brief: as §1

[13] = Hydroxylation of aceclofenac catalysed by cytochrome P450 aluC09 and mutants; conditions: for Aceclofenac (Substrate) (1.80 mins) / Dihydroxy-Aceclofenac (1.42 mins) / Hydroxy-Aceclofenac (1) (1.64 min) / Hydroxy-Aceclofenac (2) (1.60 min): % by UV peak area at 275 nm, 0.125 mg/ml substrate, 27° C., 16-20 hours; for Hydroxylated Ratio 2:1: aceclofenac, ratio of UV peak areas at 275 nm
Method in brief: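 Conversion was assessed by UPLC-MS (UV and MS detection) after acetonitrile extraction of reactions run 16-20 h at 27° C, shaking. Reactions contained substrate at 0.125 mg/ml, P450 mutant plus ferredoxin and reductase partners, 1 mM NADP with glucose-6-phosphate regeneration, in phosphate buffer pH 7.4.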

[14] = Hydroxylation of diclofenac catalysed by cytochrome P450 aluC09 and mutants (UPLC-PDA-MS); conditions: for 4′,5-dihydroxy-diclofenac 1.38 mins / 4′-hydroxy-diclofenac (1) 1.62 mins / 5-hydroxy-diclofenac (2) 1.58 mins / Diclofenac (Substrate) 1.81 mins: % by UV peak area at 275 nm, 0.125 mg/ml substrate, 27° C., 16-20 hours; for Hydroxylated Ratio hydroxy 1:hydroxy 2: ratio of UV peak areas at 275nm
Method in brief: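 Lyophilised CYP450aluC09 or mutants, with ferredoxin aluF03 and reductase SCF15A, incubated 16-20 hours at 27° C with 0.125 mg/ml diclofenac in 50 mM potassium phosphate pH 7.4, 5 mM MgCl2, and G6P/NADP/G6PDH regeneration. Acetonitrile-extracted; conversion by UPLC-PDA-MS against authentic hydroxylated standards.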

[15] = Hydroxylation / de-N-ethylation of napropamide catalysed by cytochrome P450 aluC09 and mutants; conditions: for Desethyl Napropamide (1.62 min) / Desethyl-hydroxy-Napropamide (1.41 min) / Hydroxy-Napropamide (1) (1.53 min) / Hydroxy-Napropamide (2), (1.52 min) / M-2Da (unidentified) (1.89 min) / Napropamide (substrate): % by UV peak area at 275 nm, 0.125 mg/ml substrate, 27° C., 16-20 hours; for Hydroxylated Ratio 2:1: napropamide, ratio of UV peak areas
Method in brief: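 Conversion of napropamide (0.125 mg/ml) to hydroxylated and de-ethylated metabolites was measured by UPLC-MS after acetonitrile extraction. Reactions ran 16-20 h at 27° C in pH 7.4 potassium phosphate (50 mM) with 5 mM MgCl2, 1 mM NADP, 5 mM G6P and 2 UN/ml G6PDH. Enzymes were lyophilised P450 aluC09 variants, ferredoxin aluF03 and ferredoxin reductase SCF15A.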

[16] = Metabolism of buparvaquone by P450 aluC09 and mutants; conditions: percent of substrate being converted; 0.125 mg/ml, 27° C., 16-20 hours; [CYP] per enzyme as in Table 8
Protocol: as §2, §3

Molecule	% conversions (avg) Celecoxib [1]	% conversions (avg) Tofacitinib [2]	Indomethacin (1.74 mins) [3]	O-demethyl-Indomethacin (1.52 mins) [3]	% conversions (avg) BIRB796 [4]	% conversions (avg) Ritonavir [5]	% conversions (avg) Tivantinib [6]	Flufenamic Acid (Substrate) 1.93 mins [7]	Hydroxy-Flufenamic Acid (1) 1.69 mins [7]	Hydroxy-Flufenamic Acid (2) 1.65 mins [7]	Hydroxylated Ratio 1:2 [7]	% conversions (avg) Valsartan [8]	% conversions (avg) Bosentan [9]	% conversions (avg) Ruxolitinib [10]	% conversions (avg) Epothilone B [11]	% conversions (avg) 4-pyrrolidylacetophenone [12]	Aceclofenac (Substrate) (1.80 mins) [13]	Dihydroxy-Aceclofenac (1.42 mins) [13]	Hydroxy-Aceclofenac (1) (1.64 min) [13]	Hydroxy-Aceclofenac (2) (1.60 min) [13]	further results
B1	1.5%	1.1%	94.1%	5.9%	4.6%	37.6%	35.7%	95.8%	2.7%	1.5%	1.9	21.8%	98.4%	34.1%	20.6%	3.3%	21.8%	26.6%	12.2%	39.4%	Hydroxylated Ratio 2:1 [13]: 3.2; 4′,5-dihydroxy-diclofenac 1.38 mins [14]: 0.9%; 4′-hydroxy-diclofenac (1) 1.62 mins [14]: 41.3%; 5-hydroxy-diclofenac (2) 1.58 mins [14]: 9.9%; Diclofenac (Substrate) 1.81 mins [14]: 48.2%; regioselectivity of hydroxylation (product ratio 4′-hydroxydiclofenac : 5-hydroxydiclofenac) ([14]; diclofenac): over four-fold; Hydroxylated Ratio hydroxy 1:hydroxy 2 ([14]; diclofenac): 4.2; Desethyl Napropamide (1.62 min) [15]: 36.6%; Desethyl-hydroxy-Napropamide (1.41 min) [15]: 4.8%; Hydroxy-Napropamide (1) (1.53 min) [15]: 1.2%; Hydroxy-Napropamide (2), (1.52 min) [15]: 3.6%; M-2Da (unidentified) (1.89 min) [15]: 5.3%; Napropamide (substrate) [15]: 51.0%; Hydroxylated Ratio 2:1 [15]: 3.0; % conversions (avg) Buparvaquone [16]: 7.1%
B2	0%	0%	93.0%	7.0%	0%	39.2%	7.2%	94.4%	5.1%	0.5%	4.9	7.8%	85.1%	5.3%	1.6%	1.5%	63.7%	4.4%	18.6%	13.3%	production of hydroxyl-flufenamic acid 2 ([7]; peak at 1.65 minutes, compared to wild-type): no detectable production; Hydroxylated Ratio 2:1 [13]: 0.7; 4′,5-dihydroxy-diclofenac 1.38 mins [14]: 2.1%; 4′-hydroxy-diclofenac (1) 1.62 mins [14]: 42.8%; 5-hydroxy-diclofenac (2) 1.58 mins [14]: 14.6%; Diclofenac (Substrate) 1.81 mins [14]: 41.4%; Hydroxylated Ratio hydroxy 1:hydroxy 2 ([14]; diclofenac): 2.9; Desethyl Napropamide (1.62 min) [15]: 16.3%; Desethyl-hydroxy-Napropamide (1.41 min) [15]: 0.7%; Hydroxy-Napropamide (1) (1.53 min) [15]: 1.4%; Hydroxy-Napropamide (2), (1.52 min) [15]: 1.6%; M-2Da (unidentified) (1.89 min) [15]: 2.3%; Napropamide (substrate) [15]: 78.2%; Hydroxylated Ratio 2:1 [15]: 1.2; % conversions (avg) Buparvaquone [16]: 0%
